Assay results from patent US20250084152A1 (DUKE UNIVERSITY, published 2025).

Columns and labels:
Assay in all cases: ELISA on LAH peptide
[1] = target: H3/X31 LAH peptide (LAH-Fc fusion protein) (Influenza A virus H3N2 A/Aichi/2/1968, UniProt P03436 421-475)
[2] = target: H5/VN04 LAH peptide (LAH-Fc fusion protein) (Influenza A virus H5 A/Vietnam/1203/2004, UniProt P87506 416-472)
[3] = target: B/MY04 LAH peptide (LAH-Fc fusion protein) (Influenza B virus B/Malaysia/2506/2004, UniProt P03461 425-480)

Measured: binding result

Chain of B/MY04 LAH peptide (LAH-Fc fusion protein) (P03461 425-480 limits assumed): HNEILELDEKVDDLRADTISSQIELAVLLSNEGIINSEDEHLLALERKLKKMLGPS
Chain of H5/VN04 LAH peptide (LAH-Fc fusion protein) (P87506 416-472 limits assumed): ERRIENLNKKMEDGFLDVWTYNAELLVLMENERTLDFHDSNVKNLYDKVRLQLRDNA
Chain of H3/X31 LAH peptide (LAH-Fc fusion protein) (P03436 421-475 limits assumed): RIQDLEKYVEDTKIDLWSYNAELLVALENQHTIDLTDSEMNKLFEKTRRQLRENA

B1: S1V2-72 (antibody, V domains shown)
VH: QVQLVQSGAELKKPGASVKVSCKASGYTFTGNYIHWMRQVPGQGLEWMGWINPRTGDTHHAQKFQGRVDMTRDTSINTAYLELTRLESDDTALYYCARCVFATSQFDPWGQGTLVTVSS
VL: QSALTQPASVSGSPGQSITISCTGTNSDIGSHNLVSWYQQHPGKAPKVMIYDDSKRPSGVSNRFSGSKSGSTASLTISGLQSEDEADYYCCSYAGSSNWVFGGGTKLTLL
no binding: all assays above
